Measured values taken from patent US20260242735A1 (UNIVERSIT T BASEL, published 2026).
One block for each binder: values may come before it.

Tests used:
human CD33 P132S = human CD33 P132S (human, UniProt P20138 18-364); experiment: flow cytometry, transfected cells
human CD33 W22Y = human CD33 W22Y (human, UniProt P20138 18-364); experiment: flow cytometry, transfected cells
human CD33 W22Q = human CD33 W22Q (human, UniProt P20138 18-364); experiment: flow cytometry, transfected cells
human CD33 S131K = human CD33 S131K (human, UniProt P20138 18-364); experiment: flow cytometry, transfected cells
human CD33 S131W = human CD33 S131W (human, UniProt P20138 18-364); experiment: flow cytometry, transfected cells
human CD33 P132L = human CD33 P132L (human, UniProt P20138 18-364); experiment: flow cytometry, transfected cells
human CD33 P132Q = human CD33 P132Q (human, UniProt P20138 18-364); experiment: flow cytometry, transfected cells
human CD33 N20S = human CD33 N20S (human, UniProt P20138 18-364); experiment: flow cytometry, transfected cells
human CD33 N20L = human CD33 N20L (human, UniProt P20138 18-364); experiment: flow cytometry, transfected cells
human CD33 Q24E = human CD33 Q24E (human, UniProt P20138 18-364); experiment: flow cytometry, transfected cells
human CD33 P46S = human CD33 P46S (human, UniProt P20138 18-364); experiment: flow cytometry, transfected cells
human CD33 F44D = human CD33 F44D (human, UniProt P20138 18-364); experiment: flow cytometry, transfected cells
human CD33 Y129S = human CD33 Y129S (human, UniProt P20138 18-364); experiment: flow cytometry, transfected cells
human CD33 Q24S = human CD33 Q24S (human, UniProt P20138 18-364); experiment: flow cytometry, transfected cells
human CD33 F21H = human CD33 F21H (human, UniProt P20138 18-364); experiment: flow cytometry, transfected cells
human CD33 Q24H = human CD33 Q24H (human, UniProt P20138 18-364); experiment: flow cytometry, transfected cells
human CD33 C212A = human CD33 C212A (human, UniProt P20138 18-364); experiment: alanine scan, flow cytometry;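 note: HEK293-T cells transiently expressing single-residue alanine mutants of CD33 (alanine swapped to serine), antibody binding read by fluorescence in duplicate, background-subtracted, expressed relative to wild-type CD33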
human CD33 Y49Q = human CD33 Y49Q (human, UniProt P20138 18-364); experiment: flow cytometry, transfected cells
human CD33 D51K = human CD33 D51K (human, UniProt P20138 18-364); experiment: flow cytometry, transfected cells
human CD33 Y49L = human CD33 Y49L (human, UniProt P20138 18-364); experiment: flow cytometry, transfected cells
human CD33 Y49G = human CD33 Y49G (human, UniProt P20138 18-364); experiment: flow cytometry, transfected cells
human CD33 K52L = human CD33 K52L (human, UniProt P20138 18-364); experiment: flow cytometry, transfected cells
human CD33 Y49R = human CD33 Y49R (human, UniProt P20138 18-364); experiment: flow cytometry, transfected cells
human CD33 Y49H = human CD33 Y49H (human, UniProt P20138 18-364); experiment: flow cytometry, transfected cells
human CD33 K52G = human CD33 K52G (human, UniProt P20138 18-364); experiment: flow cytometry, transfected cells
human CD33 P48I = human CD33 P48I (human, UniProt P20138 18-364); experiment: flow cytometry, transfected cells
human CD33 K52Y = human CD33 K52Y (human, UniProt P20138 18-364); experiment: flow cytometry, transfected cells
human CD33 K52T = human CD33 K52T (human, UniProt P20138 18-364); experiment: flow cytometry, transfected cells
human CD33 K52S = human CD33 K52S (human, UniProt P20138 18-364); experiment: flow cytometry, transfected cells
human CD33 P48S = human CD33 P48S (human, UniProt P20138 18-364); experiment: flow cytometry, transfected cells
Sequence of human CD33 P48S (P20138 18-364 P48S limits assumed): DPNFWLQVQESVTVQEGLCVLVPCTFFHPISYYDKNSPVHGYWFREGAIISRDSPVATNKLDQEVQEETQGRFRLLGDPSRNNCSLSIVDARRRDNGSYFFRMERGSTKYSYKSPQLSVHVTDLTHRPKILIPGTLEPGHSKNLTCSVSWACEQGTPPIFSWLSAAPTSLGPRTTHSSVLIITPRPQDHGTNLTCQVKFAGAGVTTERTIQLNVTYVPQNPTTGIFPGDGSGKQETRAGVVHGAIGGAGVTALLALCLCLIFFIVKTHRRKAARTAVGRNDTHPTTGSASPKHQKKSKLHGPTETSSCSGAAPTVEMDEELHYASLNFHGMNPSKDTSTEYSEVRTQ

Sequence of human CD33 K52G (P20138 18-364 K52G limits assumed): as the sequence (P20138 18-364 P48S limits assumed) above, with S31P, K35G counted along it
Sequence of human CD33 Q24E (P20138 18-364 Q24E limits assumed): as the sequence (P20138 18-364 P48S limits assumed) above, with Q7E, S31P counted along it
Sequence of human CD33 K52T (P20138 18-364 K52T limits assumed): as the sequence (P20138 18-364 P48S limits assumed) above, with S31P, K35T counted along it
Sequence of human CD33 P132L (P20138 18-364 P132L limits assumed): as the sequence (P20138 18-364 P48S limits assumed) above, with S31P, P115L counted along it
Sequence of human CD33 K52S (P20138 18-364 K52S limits assumed): as the sequence (P20138 18-364 P48S limits assumed) above, with S31P, K35S counted along it
Sequence of human CD33 Y49Q (P20138 18-364 Y49Q limits assumed): as the sequence (P20138 18-364 P48S limits assumed) above, with S31P, Y32Q counted along it
Sequence of human CD33 K52Y (P20138 18-364 K52Y limits assumed): as the sequence (P20138 18-364 P48S limits assumed) above, with S31P, K35Y counted along it
Sequence of human CD33 F21H (P20138 18-364 F21H limits assumed): as the sequence (P20138 18-364 P48S limits assumed) above, with F4H, S31P counted along it
Sequence of human CD33 P132Q (P20138 18-364 P132Q limits assumed): as the sequence (P20138 18-364 P48S limits assumed) above, with S31P, P115Q counted along it
Sequence of human CD33 K52L (P20138 18-364 K52L limits assumed): as the sequence (P20138 18-364 P48S limits assumed) above, with S31P, K35L counted along it
Sequence of human CD33 Q24S (P20138 18-364 Q24S limits assumed): as the sequence (P20138 18-364 P48S limits assumed) above, with Q7S, S31P counted along it
Sequence of human CD33 D51K (P20138 18-364 D51K limits assumed): as the sequence (P20138 18-364 P48S limits assumed) above, with S31P, D34K counted along it
Sequence of human CD33 P132S (P20138 18-364 P132S limits assumed): as the sequence (P20138 18-364 P48S limits assumed) above, with S31P, P115S counted along it
Sequence of human CD33 P48I (P20138 18-364 P48I limits assumed): as the sequence (P20138 18-364 P48S limits assumed) above, with S31I counted along it
Sequence of human CD33 Y49G (P20138 18-364 Y49G limits assumed): as the sequence (P20138 18-364 P48S limits assumed) above, with S31P, Y32G counted along it
Sequence of human CD33 S131K (P20138 18-364 S131K limits assumed): as the sequence (P20138 18-364 P48S limits assumed) above, with S31P, S114K counted along it
Sequence of human CD33 Y129S (P20138 18-364 Y129S limits assumed): as the sequence (P20138 18-364 P48S limits assumed) above, with S31P, Y112S counted along it
Sequence of human CD33 N20S (P20138 18-364 N20S limits assumed): as the sequence (P20138 18-364 P48S limits assumed) above, with N3S, S31P counted along it
Sequence of human CD33 Y49H (P20138 18-364 Y49H limits assumed): as the sequence (P20138 18-364 P48S limits assumed) above, with S31P, Y32H counted along it
Sequence of human CD33 S131W (P20138 18-364 S131W limits assumed): as the sequence (P20138 18-364 P48S limits assumed) above, with S31P, S114W counted along it
Sequence of human CD33 N20L (P20138 18-364 N20L limits assumed): as the sequence (P20138 18-364 P48S limits assumed) above, with N3L, S31P counted along it
Sequence of human CD33 W22Q (P20138 18-364 W22Q limits assumed): as the sequence (P20138 18-364 P48S limits assumed) above, with W5Q, S31P counted along it
Sequence of human CD33 Q24H (P20138 18-364 Q24H limits assumed): as the sequence (P20138 18-364 P48S limits assumed) above, with Q7H, S31P counted along it
Sequence of human CD33 P46S (P20138 18-364 P46S limits assumed): as the sequence (P20138 18-364 P48S limits assumed) above, with P29S, S31P counted along it
Sequence of human CD33 F44D (P20138 18-364 F44D limits assumed): as the sequence (P20138 18-364 P48S limits assumed) above, with F27D, S31P counted along it
Sequence of human CD33 Y49R (P20138 18-364 Y49R limits assumed): as the sequence (P20138 18-364 P48S limits assumed) above, with S31P, Y32R counted along it
Sequence of human CD33 Y49L (P20138 18-364 Y49L limits assumed): as the sequence (P20138 18-364 P48S limits assumed) above, with S31P, Y32L counted along it
Sequence of human CD33 W22Y (P20138 18-364 W22Y limits assumed): as the sequence (P20138 18-364 P48S limits assumed) above, with W5Y, S31P counted along it
Sequence of human CD33 C212A (P20138 18-364 C212A limits assumed): as the sequence (P20138 18-364 P48S limits assumed) above, with S31P, C195A counted along it

binding result (human CD33 P132S): no binding (tested: below 20%) | binding result (human CD33 W22Y): no binding (tested: below 20%) | binding result (human CD33 W22Q): no binding (tested: below 20%) | binding result (human CD33 S131K): no binding (tested: below 20%) | binding result (human CD33 S131W): no binding (tested: below 20%) | binding result (human CD33 P132L): no binding (tested: below 20%) | binding result (human CD33 P132Q): no binding (tested: below 20%)
B1: Refmab #6 (antibody, human IgG1, V domains shown)
VH: QVQLQQPGAEVVKPGASVKMSCKASGYTFTSYYIHWIKQTPGQGLEWVGVIYPGNDDISYNQKFQGKATLTADKSSTTAYMQLSSLTSEDSAVYYCAREVRLRYFDVWGQGTTVTVSS
VL: EIVLTQSPGSLAVSPGERVTMSCKSSQSVFFSSSQKNYLAWYQQIPGQSPRLLIYWASTRESGVPDRFTGSGSGTDFTLTISSVQPEDLAIYYCHQYLSSRTFGQGTKLEIK

binding result (human CD33 N20S): no binding (tested: below 20%) | binding result (human CD33 N20L): no binding (tested: below 20%) | binding result (human CD33 Q24E): no binding (tested: below 20%) | binding result (human CD33 P46S): no binding (tested: below 20%) | binding result (human CD33 F44D): no binding (tested: below 20%) | binding result (human CD33 Y129S): no binding (tested: below 20%) | binding result (human CD33 Q24S): no binding (tested: below 20%) | binding result (human CD33 F21H): no binding (tested: below 20%) | binding result (human CD33 Q24H): no binding (tested: below 20%)
B2: Refmab #3 (antibody, human IgG1, V domains shown)
VH: QVQLVQSGAEVKKPGSSVKVSCKASGYTFTDYNMHWVRQAPGQGLEWIGYIYPYNGGTGYNQKFKSKATITADESTNTAYMELSSLRSEDTAVYYCARGRPAMDYWGQGTLVTVSS
VL: DIQMTQSPSSLSASVGDRVTITCRASESVDNYGISFMNWFQQKPGKAPKLLIYAASNQGSGVPSRFSGSGSGTDFTLTISSLQPDDFATYYCQQSKEVPWTFGQGTKVEIK

Mean % WT Binding (human CD33 C212A): 28.4 % WT binding
B3: Refmab #5 (antibody, V domains shown)
VH: QVQLVQSGAEVKKPGASVKVSCKASGYTFTNYDINWVRQAPGQGLEWIGWIYPGDGSTKYNEKFKAKATLTADTSTSTAYMELRSLRSDDTAVYYCASGYEDAMDYWGQGTTVTVSS
VL: DIQMTQSPSSLSASVGDRVTINCKASQDINSYLSWFQQKPGKAPKTLIYRANRLVDGVPSRFSGSGSGQDYTLTISSLQPEDFATYYCLQYDEFPLTFGGGTKVEIK
notes: Full-length format is human IgG1 Fc silent (PG-LALA); also made as Fab; The alanine scan used IgG or Fab

binding result (human CD33 Y49Q): no binding (tested: below 20%) | binding result (human CD33 D51K): no binding (tested: below 20%) | binding result (human CD33 Y49L): no binding (tested: below 20%) | binding result (human CD33 Y49G): no binding (tested: below 20%) | binding result (human CD33 K52L): no binding (tested: below 20%) | binding result (human CD33 Y49R): no binding (tested: below 20%) | binding result (human CD33 Y49H): no binding (tested: below 20%) | binding result (human CD33 K52G): no binding (tested: below 20%) | binding result (human CD33 P48I): no binding (tested: below 20%) | binding result (human CD33 K52Y): no binding (tested: below 20%) | binding result (human CD33 K52T): no binding (tested: below 20%) | binding result (human CD33 K52S): no binding (tested: below 20%)
B4: Refmab #5 (antibody, human IgG1, V domains shown)
VH: B3 VH
VL: B3 VL

binding result (human CD33 P48S): no binding (tested: below 20%)
B5: Refmab #4 (antibody, human IgG1, V domains shown)
VH: QVQLVQSGAEVKKPGESVKVSCKASGYTFTNYGMNWVKQAPGQGLEWMGWINTYTGEPTYADKFQGRVTMTTDTSTSTAYMEIRNLGGDDTAVYYCARWSWSDGYYVYFDYWGQGTSVTVSS
VL: DIVMTQSPDSLTVSLGERTTINCKSSQSVLDSSTNKNSLAWYQQKPGQPPKLLLSWASTRESGIPDRFSGSGSGTDFTLTIDSPQPEDSATYYCQQSAHFPITFGQGTRLEIK
